{"source": "the NTF2 design screens of Basanta et al. (2020)"}
{"assay": "protease stability score; higher = more stable; yeast display proteolysis, trypsin and chymotrypsin;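 also: log10 excess protease needed over predicted unfolded state with 0 meaning unfolded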"}
{"sequence": "DEDALDLLEKAARAYQTGDPDQLMRNLDEDAKVDVGDKKIRGRNDARRHLQELKDKIELHLHVTEMSVQGNKVHAHFKLHSDQNGKPYHTDVEMRADVHNGRVKRMEIRTTK", "protease stability score": -0.159}
{"sequence": "DEDALDQVEEMMRNNNEQEIADRADKDVEVEYGDHELHGREDMQDWAEKWQQQVDHLEVKSVHKKGDHFKMKLRAVFNGQEYTFVMVVEVHNGKIKNIKYDATSKEVKEIQKEVLK", "protease stability score": -0.163}
{"sequence": "DEDALKQMHENLENIKEGDPDKIKKMFDENARVEVGDKVLNGRDQASKFWSELRDQINIHIRDVKLSVSGEEVTINIDARFTHNGQPQTSIFRIEAELHNGTIKSLRVKLDG", "protease stability score": 2.02}
{"sequence": "DEDALRKFKEFLEIKREGDERRLLELFDENVKIVVGDTELEGMTEAARDITRKRKEMRVEQRYDRFHVQGEHIRARARFTVKFNGRPHTNENTFRVVLRNGHYKSYELKIDPDELRKLDS", "protease stability score": -0.083}
{"sequence": "DEDALRNWEQFIRNYKHGDETELQKLVDPNVHVRIGDREIHGREKLREHWRRQKEHARVDINVRSLEDQGSKVQVTFKMQYQVNGQPKHNSMRMEFTVRNGRIVEASYQFDPDEHRKLQS", "protease stability score": 1.23}
{"sequence": "DEDALRVFDKLVKAWKNNDEDKMKKLMDPNVKVEYGDKQVHGMDEYLHSMVTRQRQIRVHFRVKDIKTRPGRVVANYEVEEENDGKPHHTKVRVTLKVHNGRVKQAEYDVKP", "protease stability score": 0.017}
{"sequence": "DEDALTRIEDAAKHMNEGNFERYADMADPNAHVNIGDKTYQGRESLKHLMQEQRERWEFKLDVRRVDQDGEKAVVTAKVNQKHNGKPDTKTVYIYVSWKNGRAQEIEVRQDS", "protease stability score": 0.319}
{"sequence": "DEDALTRLREFDDNVRKGNKHRLQDLMDPNVKVRYGDTEIKGREHVAKELKKLVDTMHIEIDYKSMSAEGNHATLTAEVVVQVNGRPIKFRMHVQVQFENGKIKELVYRFSEDAQKKMDG", "protease stability score": 1.53}
{"sequence": "DEDAMKRFKDLLRAQETGDEHRIRELVDPNAQFVIGDRKITGREEYVRIFREERENMHIDLEVKSVSVKGNKLTIHLTFKVDHNGKPMRASAQIQVKIRNGRIQEVQYDFDEDQLRKLKR", "protease stability score": 0.32}
{"sequence": "DEDANDVVRKYIEAVNTGDPDQVNELVDPNVRVEVGDKTLSGHEEIRKEQQERTKQSRVEIEVKQMKVHGDNIILYAVVRYNHNGKPSSRHVKMTFSAHNGHFKHIRVHDDQ", "protease stability score": 0.809}
{"sequence": "DEDANENIRKQLEWEEKGNPQQAKKQADPNAQFNIGDHTFNGMDEYMHWVKRELTHLRIEIKDVKFDVQGEKIEIDVRFVVDENGRPKEDRQDFDVTMHNGHIHNINVDKIS", "protease stability score": -0.21}
{"sequence": "DEDANHRFKDQVRAIKTGDSKRVEELVDPNVHNHVGEWRVHGSTHWATLAKQVRDEMRVDLDIKSVENSGNKLNIDANVIIDHNGKPHRNQVNWNVNNHNGRIQEASAKKSN", "protease stability score": -0.484}
{"sequence": "DEDANKVMKKVVEAIKEGDPDTIRKLVDPNARVNVGDTTVNGREEFARQNHEKMNQSRIHYLSMDFEQREGHAVVTVRFEKHHNGKPDTDRYRATANFKNGKLTEYKQKEDG", "protease stability score": -0.291}
{"sequence": "DEDANNTAKEMLENIDEGNEKRWSELMDENATFNVGDKTYHGRENAEHLFRERKDEMRIEIDLHKVEVSGDHVVLDITVVKEHNGKPRRVDVQVEFRIHNGRMQEFVQDEHG", "protease stability score": 0.245}
{"sequence": "DEDANRELHKAMKHNDWDLLAKQMDKDVSKQVGDKTVHGRDRIQEDIKRLKTEIDHMEIEHVSARGDHLTADVHLVVNGQHVKFVIHIQFDNGRIKQIQWQVRDEDVEKQMKKLKG", "protease stability score": -0.074}
{"sequence": "DEDANRKAEEFAQNLRENDEDRLQQLVDPNARLNVGEFSVHGRTELTHQLRRVTREMRVEVQIRDIRVQNGHAHLDIEVVIDHNGKPSSRVLRMVVDFRNGKIQNLDVRTDQ", "protease stability score": 0.601}
{"sequence": "DEDANRKAREYAHAREHGDPRHAREYADPNAEFTVGDKSFHGMQEDVERMERERKEMRVEIKDVQVSAHDGRLTLDLRFVKDNNGQPREVRQNVQFNIENGRATEIDVQETK", "protease stability score": -0.214}
{"sequence": "DEDANRLVEEYIRAVEKGDEDQARRMMDENVTVKVGDKTVHGHDHQAREMNKVKKQARIEIKDYRLDNSNGRVVIRMTFIADRNGKPITFDIVIIINFHNGRAKNMHVHISEEELKRLEG", "protease stability score": 1.06}
{"sequence": "DEDANRRLRRLIEQIHENDPDKIDEMFDPNARVDIGDHTVHGREQLRQTVKREAKEIRIRIERLDVRVKGDKATVEMHFVRKNNGEPRSNRVVVTARIRNGKIESMKQTEDG", "protease stability score": 0.763}
{"sequence": "DEDAQELAEQLWTAWETGDPRQIQNLMDPNVNFRYGDKTFQGREHLHRLIKDIQENIRIDYRHYSVDVKGDKASIKINIQLHHDGKPETKTNDLTIHFSGDRIQRVEQNDRQ", "protease stability score": 0.248}
